# Measured values: the nanobody polyreactivity screen of Harvey et al. (2022)
# Experiment: yeast display, Sf9 membrane polyspecificity reagent, FACS + sequencing; frameworks hold sequencing errors
# Method in brief: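 After 36–48 hours of galactose induction, yeast (Saccharomyces cerevisiae BJ5465) displaying a synthetic nanobody library were stained at 4 °C for 1 hour with 10% biotinylated, detergent-solubilized Sf9 membrane reagent. Streptavidin microbeads enriched the stained cells before FACS sorting into low and high (top ~1%) gates on anti-HA and streptavidin fluorescence. Each clone's polyreactivity label reflects its gate of origin.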
row,Sequence,polyreactivity (PSR sort gate)
1,QVQLVESGGGLVQAGGSLRLSCAAYGITFDANAMGWYRQAPGKERELVARISSGGSTNYADSVKGRFTISRDNAKNTVYLQMNSLKPEDTAVYYCAAERIARPTFDYWGQGTQVTVSS,low polyreactivity
2,QVQLVESGGGLVQAGGSLRLSCAAYGITFRVNPMGWYRQAPGKERELVAAISRGGGSTSYADSVMGRFTISRDNAKNTFYLQMNSLKPEDTAVYFCAREPLAYYVARYDYWGQGTQVTVSS,high polyreactivity
3,QVQLVESGGGLVQAGGSLRLSCAAYGITFYRNAMGWYRQAPGKEMELVAAITWNGGRTYYADSVKGRFTISRDNAKNTVYLQMNSLKPEDTAVYYCAADSGTLNLASYRYYYWGQGTQVTVSS,low polyreactivity
4,QVQLVESGGGLVQAGGSLRLSCAAYGLTFPYYVMGWYRPAPGKERELVAAISSSGGSTYYADSVKGRFTISRDNAKNTVYLQMNSLKPEDTAVYYCAAVEIYLAYDLPYWSEMDYWGQGTQVTVSS,low polyreactivity
5,QVQLVESGGGLVQAGGSLRLSCAAYGNIFYVYVMGWYRQAPGKERELVASITSGASTYYADSVKGRFTISRDNAKNTVYLQMNSLKPEDTAVYYCAAEALGGAGDYSTLYIYDYWGQGTQVTVSS,low polyreactivity
6,QVQLVESGGGLVQAGGSLRLSCAAYGRIFGWYAMGWYRQAPGKERELVAAISSSTSTYYADSVKGRFTISRDNEKNTVYLQMNSLKPEDTAVYYCNADWYYQRVQYYWYRYDYWGQGTQVTVSS,high polyreactivity
7,QVQLVESGGGLVQAGGSLRLSCAAYGRIFKYYVMGWYRQAPGKERELVATISSGSGTNYADSVKGRFTISRDNAKNTVYLQMNSLKPEDTAVYYCAARWTPRVRGYNYWGQGTLVTVSS,high polyreactivity
8,QVQLVESGGGLVQAGGSLRLSCAAYGRIFSYYAMGWYRQAPGKERELVAASSGNGGSTYYADSVKGRFTISRDHAKNTVYLQMNSLKPEDTAVYYCAAVWWSSDWASLYPYSYDHWGQVTQVTVSS,low polyreactivity
9,QVQLVESGGGLVQAGGSLRLSCAAYGRIIRWYARGWYRPSPGKERALVAAISWSGGSTYYADSVKGRFTISRDNAKNTVYLQLNSLKPEDTAVYYCNTVYAEYDYSTVDYWGQGTQVTVSS,high polyreactivity
10,QVQLVESGGGLVQAGGSLRLSCAAYGRTFGRYAMGCYRPAPGKERELVAAITVGGGSKYYADSVKGRFTISRDNAKNTVYLQMNSLKPEDTAVYYCNALHTYTYRYDYYYWGQGTQVTVSS,high polyreactivity
11,QVQLVESGGGLVQAGGSLRLSCAAYGRTFNPYAMGWYRQAPGKERELVARITWSGGRTYYADSVKGRFTISRDNAKNTVYLQMNSLKPEDTAVYYCAARYSKYLYGRFESWGQGTQVTVSS,high polyreactivity
12,QVQLVESGGGLVQAGGSLRLSCAAYGRTFTTNAMGWYRQAPGKERELVAAISRLGGSTYYADSVKGRFTISRDNAKNTVYLQMNSLKPEDTAVYYCYAHLWIRGYDYWGQGTQVTVSS,high polyreactivity
13,QVQLVESGGGLVQAGGSLRLSCAAYGRTFTWYSMGWYRQAPGKERELVAAISKSGGSTYYSDSVKGRFTISRDNAKITVYLQMNSLKPEDTAVYYCNAEFYGYFLGYGYWGQGTQVSVSS,low polyreactivity
14,QVQLVESGGGLVQAGGSLRLSCAAYGRTLGYYAMGWYRPAPGQERELVAAITGSDGSTYADSVKGRFTISRDNAKNTVYLQMNSLKPEDTAVYYCNSKNEHGSLGFDYWGQGTQVTVSS,high polyreactivity
15,QVQLVESGGGLVQAGGSLRLSCAAYGSIFDSNTMGWYRQAPGKERELVAGISTGGSTNYADSVKGRFTISRDNAKNTVYLQMNSQKPEDTAVYYCNADLGSSYDWGQGTQVTVSS,low polyreactivity
16,QVQLVESGGGLVQAGGSLRLSCAAYGSIFYSYAMGWYRQAPGKERELVASIRIGSSTNYADSVKGRFTISRDNAKNTVYLQMNSLKPEDSAVYYCAARRFYKYYYGSDYWGQGTQVTVSS,high polyreactivity
17,QVQLVESGGGLVQAGGSLRLSCAAYGSIIRRYAMGWYRQAPGKERELVATISSGSRTYYADSVKGRFTISRDNAKNTVYLQMNSLKPEDTAVYYCNARSRRVGLTLYNYWGQGTQVTVSS,high polyreactivity
18,QVQLVESGGGLVQAGGSLRLSCAAYGSIIVRYAMGWYGQAPGKVRELVPTITFRDTSTYYADSVKGRFTSSRDNAKNTVYLQMNSLKPEDSAVYYCNAHIPTNRSYVPAVRGEDDYWGQGTQVTVSS,low polyreactivity
19,QVQLVESGGGLVQAGGSLRLSCAAYGSIRNFYAMGWNRKAPGKERELVPTISSGGNTHYADSVKGRFTISRDNAKNTVYFQMTSLKPEDTAVYYCNKVTIGGFFWYRAYDYWGQGTQVTVSS,low polyreactivity
20,QVQLVESGGGLVQAGGSLRLSCAAYGSTFGDYAMGWYRQAPGKERELVAAITIGGITTYADSVKGRFTISRDNAKNTVYLQMNSLKPEDTAVYYCADAERGDWDDYWGQGTQVTVSS,low polyreactivity
21,QVQLVESGGGLVQAGGSLRLSCAAYGSTFGWYTMGWYRQAPGKERELVATISYGGGITNYADSVKGRFTISRDNAKITVYLQMNSLKPEDTADYDCAVDNTGRSWPYDYWGQGTQVTVSS,low polyreactivity
22,QVQLVESGGGLVQAGGSLRLSCAAYGSTFNYKAMAWYRQAQGKERELVATITTSGGSTYYADSVKGRFTISRDNAKNTVYLQMNSLKPEDTAVYYCAARYPWSVYRIYGAHYDYWGQGTLVTVSS,low polyreactivity

row,Sequence,polyreactivity (PSR sort gate)
1,QVQLVESGGGLVQAGGSLRLSCAAYGSTLATNAMGWYRPAPGKERELVAYADSVKGRFTISRDNAKNTVYLQMNSLKPEDTAVYYCAKDALVIDGGGGYDYWGQGTQVTVSS,low polyreactivity
2,QVQLVESGGGLVQAGGSLRLSCAAYGSTLLTYTMGWYRQAPGKERELVASITTSGGSTYYADSVKGRFTISRDNAKNTVYLQMNSLKPEDTAVYYWGQGTQVTVSS,low polyreactivity
3,QVQLVESGGGLVQAGGSLRLSCAAYGYTFRGYAMGRYRQAPGKEREFVAAINWSDGSTYYADSVKGRFTISRDNAKNTVYLQMNSLKPEDTAVYYCNADQYYRFPDNYLGQGTQVTVSS,low polyreactivity
4,QVQLVESGGGLVQAGGSLRLSCAAYYAMGWYRQAPVKERELVAAISSTGRTNYADSVKGRFTISRDNAKNTVYLQMNSLKPEDTAVYYCAAEWHYIYAYDYWGQGTQVTVSS,low polyreactivity
5,QVQLVESGGGLVQAGGSLRLSCADSARTFYYNTKGWYRQAPGKERELVASISGSGGRTYYADSVKGRFTISRDNAKNTVYLQMNSLKPEDTAVYYFAAGSIRYRFPFGYDYWGQGTQVTLSS,high polyreactivity
6,QVQLVESGGGLVQAGGSLRLSCADSGFIFAYYVMGWYRQAPGKERELVAAISRGGGSTYYADSVKGRFTISRDNAKYTVYLQMNSLKPEDTAVYYCATYSHALRYDYWGQGTQVTVSS,high polyreactivity
7,QVQLVESGGGLVQAGGSLRLSCADSGFIFPNYGMGSYRQAPGKERELVAYADSVKGRFTISRDNAKNTVYLQMNSLKPEDTAVYYCNADPPYTRWADYWHGGGYWGQGTQVTVSS,low polyreactivity
8,QVQLVESGGGLVQAGGSLRLSCADSGFIFSAHAMGGYSQAPGKDRELVAAISRTGGSTYYADSVKGRFTISRDNAKNTVYLQMNSLKPEETAGYYGAAYIRYGGLAYDSNYWGQGTQVTVSS,high polyreactivity
9,QVQLVESGGGLVQAGGSLRLSCADSGFIFVDYVMGWYRQSPGKERELVASISASGGTTYYADSVKGRLTISLDNAKNTVYLQMNSLKPEDTAVYYCNARWSPVNLRYGREGDYWGQGTQVTVSS,high polyreactivity
10,QVQLVESGGGLVQAGGSLRLSCADSGFIFVVKAMGWYRQAPGKEREIVAVISSSTGSTYYADSVKGRFTISRDNAKNTVYLQLNSLKPEDTAVYSCAAASRRRRPLKRMYYWGQGTQVTVSS,low polyreactivity
11,QVQLVESGGGLVQAGGSLRLSCADSGFIFWYYAMGWYRQAPGKERELVAAISWSGDSTYYADSVKWRFTISRDTANNTVYLQMNSLKPEDTAVYYCAVYDELDVFYNGYDYWGQGTQVTVSS,high polyreactivity
12,QVQLVESGGGLVQAGGSLRLSCADSGFILWYNAMGWYRQAPGKERELVARIDVRGGSTYYADSVKGRFTISRDNAKNTVYLQMNSLKPEDTAVYYCARKRQGPASRARYDYWGQGTQVTVSS,low polyreactivity
13,QVQLVESGGGLVQAGGSLRLSCADSGFNFKYYAMGWYRQAPGKERELVATITSRGGSTYYADSVKGRFTISRDNAKNTVYLQMNSLKPEATAVYYCNARSSSPGKYGYWGQGTQVTVSS,high polyreactivity
14,QVQLVESGGGLVQAGGSLRLSCADSGFTFFSNAMGWYRQAPGKERELVAAITSSGRSTYADSVKGRYTISRDKAKNTVYLQMNSLKPEDSAVYYCAARRTGYLYRYGYWGQGTQVTVSS,low polyreactivity
15,QVQLVESGGGLVQAGGSLRLSCADSGFTFILYAMGWYRQAPGKERELVAAITTSGGRTYYADSVKGRFTISRDNAKNTVYLQMNSLKPEDTAVYYCAAKEYYTPYRRGYWGQGTQVTVSS,high polyreactivity
16,QVQLVESGGGLVQAGGSLRLSCADSGFTFPSYAMGGYRQAPGKERELVDVISRRGGSTYYADSVKGRFTISRDNAKNTVYLQMNSLKPEDTAVYYCARPRQPGSLYGYWGQGTQVTVSS,high polyreactivity
17,QVQLVESGGGLVQAGGSLRLSCADSGFTFPSYTMGWYRQAPGKERDLDASIRVSGGRTYYADSVKGRFTISRDNAKNTVYLQMNSLKPEDTAVYYCAADYMTWWGGRYDYWGQGTQVTVSS,high polyreactivity
18,QVQLVESGGGLVQAGGSLRLSCADSGFTFSLNTMGWYRQAPGKERELVAAINSGDSTYADSVKGRFTISRDNAKNTVYLQMNSLKPEDTAVYYCNADPDWWYPYIYWGQGTQVTVSS,low polyreactivity
19,QVQLVESGGGLVQAGGSLRLSCADSGFTFSQYAAIGWYRQAPGKERELVAAINISGSTNYADSVKGRFTISRDNAKNTVYLQMNSLKPEDTAVYYCAAQQSWKIYDYWGLGTQVTVSS,low polyreactivity
20,QVQLVESGGGLVQAGGSLRLSCADSGFTFTYYAMGWYRQAPGKERELVAGITRSGGSTYYADSVKGRFTISRDTAKNTVYLQMNSLKPEDTAVYYCAVKFVRYRQGIVLYDYWGQGTQVTVSS,high polyreactivity
21,QVQLVESGGGLVQAGGSLRLSCADSGITFYEFGMGWYRQAPGKERELVAAITTDGRTNYADSVKGRFTISRDNATNTVYLQMNILKPEDTAVYYCAVVHYFWGFYSVDYWGQGTQETVSS,high polyreactivity
